PMC6195595, “Structure-based redesign of docking domain interactions modulates the product spectrum of a rhabdopeptide-synthesizing NRPS” (Nature Communications, 2018)

T1: Kj12A N-terminal docking domain (Xenorhabdus stockiae KJ12.1)
T1 construct: also called Kj12A-NDD; source: E. coli BL21-Gold(DE3), purified (HisTrap, Ulp1 cleavage, anion exchange, SEC)
T1 chain: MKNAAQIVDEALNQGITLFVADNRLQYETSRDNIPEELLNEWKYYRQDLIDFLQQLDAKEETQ

T2: Kj12B N-terminal docking domain (Xenorhabdus stockiae KJ12.1)
T2 construct: also called Kj12B-NDD; source: E. coli BL21-Gold(DE3), purified (HisTrap, Ulp1 cleavage, anion exchange, SEC)
T2 chain: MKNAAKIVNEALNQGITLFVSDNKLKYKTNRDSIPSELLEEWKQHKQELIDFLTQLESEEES

B1: Kj12B-CDDshort peptide (peptide)
peptide: QEYLRGEI
notes: source: synthetic peptide (Fmoc solid-phase synthesis, preparative HPLC)
B2: Kj12C N-terminal docking domain (domain or fragment)
chain: MIDAAQIVDEALEQGITLFVVNNRLQYETSRDSIPTELLNKWKQHKQELIDFLNQLDSEEQTK
notes: Kj12C of Xenorhabdus stockiae KJ12.1, N-terminal docking domain, 63 residues; 15N-labelled for the NMR titrations; also called Kj12C-NDD; source: E. coli BL21-Gold(DE3), purified (HisTrap, Ulp1 cleavage, anion exchange, SEC); not shown: His6-SUMO, N-terminal, cleaved
B3: Kj12B-CDDshort G1566A peptide (peptide)
peptide: QEYLRAEI
notes: as for B1
B4: Kj12B-CDDshort L1564A peptide (peptide)
peptide: QEYARGEI
notes: as for B1
B5: Kj12B C-terminal docking domain peptide (peptide)
peptide: LLKEKRKHFQAEQNSSQEYLRGEI
notes: also called Kj12B-CDD; source: synthetic peptide, bought: JPT Peptides Technologies GmbH

Experiments:
Assay in all cases: ITC; 50 µM NDD (or Kj12C construct) in the cell titrated with 1 mM CDD peptide; 20 °C; 50 mM sodium phosphate pH 6.5, 100 mM NaCl; one site binding model; three independent titrations
Settings in all cases: both partners purified
[1] = biological target: B2
[2] = biological target: T3, Kj12B-CDDshort R1565E peptide (Xenorhabdus stockiae KJ12.1, R1565E (stands in the printed letters))
T3 construct: source: synthetic peptide (Fmoc solid-phase synthesis, preparative HPLC)

[3] = biological target: B2
[4] = biological target: T1, Kj12A N-terminal docking domain
[5] = biological target: T2, Kj12B N-terminal docking domain

Row | Binder | stoichiometry N [1] [sites] | Kd [3] [µM] | also measured
1 | B1 | 1.05 ± 0.11 | – | –
2 | B2 | – | – | Kd [2]: > 100 µM
3 | B3 | – | > 100 | –
4 | B4 | – | > 100 | –
5 | B5 | 0.9 ± 0.12 | – | stoichiometry N [4]: 0.81 ± 0.01 sites; stoichiometry N [5]: 1 sites
